Tests used:
Assay in all cases: EMSA; 500 ng protein; 1X LightShift EMSA binding buffer, 50 ng/ul poly(dI-dC), 20 fmol probe in 20 ul, +/- 4 pmol unlabeled DNA, room temperature 30 min; 5% native PAGE, 0.5X TBE; pH and salt not given
Conditions in all cases: protein: recombinant; tags: His (pET28a); label: 3'-biotin on strand 1; blunt
CAMTA3 CG-1 M1 = target: T1, CAMTA3 CG-1 M1 (Arabidopsis thaliana, UniProt Q8GSA7 1-153, W26A)
T1 sequence: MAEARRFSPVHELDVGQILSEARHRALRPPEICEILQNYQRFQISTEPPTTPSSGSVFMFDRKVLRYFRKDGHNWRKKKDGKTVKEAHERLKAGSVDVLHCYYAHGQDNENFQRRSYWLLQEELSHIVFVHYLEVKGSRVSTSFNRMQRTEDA

CAMTA3 CG-1 M6 = target: T2, CAMTA3 CG-1 M6 (Arabidopsis thaliana, UniProt Q8GSA7 1-153, Y132A)
T2 sequence: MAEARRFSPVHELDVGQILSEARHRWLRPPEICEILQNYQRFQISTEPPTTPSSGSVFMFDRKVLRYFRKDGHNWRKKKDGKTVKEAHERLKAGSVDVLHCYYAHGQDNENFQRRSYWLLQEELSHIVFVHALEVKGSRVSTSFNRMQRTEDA

CAMTA3 CG-1 M3 = target: T3, CAMTA3 CG-1 M3 (Arabidopsis thaliana, UniProt Q8GSA7 1-153, H88A)
T3 sequence: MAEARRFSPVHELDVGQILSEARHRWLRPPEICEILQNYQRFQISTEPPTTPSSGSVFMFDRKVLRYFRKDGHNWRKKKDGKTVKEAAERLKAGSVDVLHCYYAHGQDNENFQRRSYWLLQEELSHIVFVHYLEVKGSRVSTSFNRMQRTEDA

CAMTA3 CG-1 M4 = target: T4, CAMTA3 CG-1 M4 (Arabidopsis thaliana, UniProt Q8GSA7 1-153, Y102A;Y103A)
T4 sequence: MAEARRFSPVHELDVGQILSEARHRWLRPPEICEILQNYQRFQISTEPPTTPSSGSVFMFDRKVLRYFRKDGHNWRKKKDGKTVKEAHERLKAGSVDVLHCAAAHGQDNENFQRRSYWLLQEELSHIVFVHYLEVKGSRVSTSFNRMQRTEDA

CAMTA3 CG-1 M2 = target: T5, CAMTA3 CG-1 M2 (Arabidopsis thaliana, UniProt Q8GSA7 1-153, W75A)
T5 sequence: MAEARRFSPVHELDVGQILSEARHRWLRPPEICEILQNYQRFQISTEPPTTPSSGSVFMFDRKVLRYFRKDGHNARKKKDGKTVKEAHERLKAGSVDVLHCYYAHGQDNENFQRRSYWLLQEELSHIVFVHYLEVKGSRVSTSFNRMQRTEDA

Measured: binding result

B1: PDF1.4 promoter probe (dsDNA)
DNA 1: CGTGAAAGTCACGCGCCAAGAACAAA
DNA 2: TTTGTTCTTGGCGCGTGACTTTCACG
no binding: CAMTA3 CG-1 M1 | CAMTA3 CG-1 M6 | CAMTA3 CG-1 M3 | CAMTA3 CG-1 M4 | CAMTA3 CG-1 M2

Source: article PMC10417383, “DNA-Binding Activity of CAMTA3 Is Essential for Its Function: Identification of Critical Amino Acids for Its Transcriptional Activity”
